This note sets out measurements from patent publication US20120184020A1, “ENGINEERED MICROORGANISMS WITH ENHANCED FERMENTATION ACTIVITY” (Verdezyne, Inc., priority 2009, published 2012).

Where “and” joins values, the source holds several entries; their conditions need not be identical. Equal entries are not always repeated.

Series [1] has as its system engineered yeast (S. cerevisiae). As to the kind of experiment: Heterologous xylose isomerase expression in yeast (active yes/no). It is filed as cell-based. The conditions noted are these: xylose isomerase of donor organism expressed in engineered yeast (S. cerevisiae).
Series [2] in a line: Industrial yeast strain: serum bottle (anaerobic) growth and ethanol production on xylose. The following applies: sealed serum bottles, versus vector only control. The class given is cell-based, Saccharomyces cerevisiae. The method, then:
The serum bottles were sealed with a butyl rubber stopper to prevent air exchange. As a result, the cultures became anaerobic once the available oxygen in the serum bottle was utilized. In general, anaerobiosis (e.g., the onset of anaerobic conditions) occurred a few hours after the culture was inoculated. Xylose utilization, ethanol production and cell growth were measured every twenty four hours.

Series [3] in a line: Industrial yeast strain BF903 evaluation: aerobic growth and xylose consumption in YP-xylose. The conditions noted are these: commercial yeast strain BF903, YP-xylose with G418, aerobic, 30° C., 7 days. The class given is cell-based, Saccharomyces cerevisiae. How it is done: A commercially available industrial diploid strain of Saccharomyces cerevisiae (strain BF903; “Stillspirits” triple distilled yeast, Brewcraft, Albany, New Zealand; available at Hydrobrew, Oceanside, Calif.) was obtained and was made competent for transformation using known yeast cell transformation procedures. […] Transformed yeast containing each construct were grown overnight aerobically in a 15 ml culture tube on YPD media containing 2% glucose. After about 24 hours, about 25 ml of YP media containing 2% glucose and 100 μg/ml G418 was seeded with the cells at an initial OD600 of 0.5 in a 250 ml Erlenmeyer flask and grown aerobically at 30° C. The cultures were then passaged once every 7 days into fresh media, also at an initial OD600 of 0.5.
Measurements were taken of the cell optical density (OD600) to assess cell density and plated onto YPD with 100 μg/ml G418 to ensure that the plasmid was stable. […] The strains were then grown overnight in YPD (with 100 μg/ml G418) and used to inoculate about 50 ml YP-xylose (with 100 μg/ml G418) into disposable 250 ml Erlenmeyer flasks with vented caps at an initial OD600 of about 1. The cultures were allowed to grow aerobically at 30° C. at 200 rpm for 7 days.

Series [4] is described as follows: In vivo evaluation of xylose isomerase constructs in C5 strain: xylose fermentation, aerobic then anaerobic. It is filed as cell-based, Saccharomyces cerevisiae. The following applies: harvest at 372 hours. The source says: The engineered strain was designed to include the following genetic modifications: the native Pho13 gene (alkaline phosphatase specific for p-nitrophenyl phosphate) was disrupted by inserting a construct containing the native TLK1 gene (Transketolase-1); the native aldose reductase gene (Gre3) was disrupted by inserting a construct containing the native high-affinity glucose transporter-7 gene (HXT7); the native glucose-repressible alcohol dehydrogenase II gene (adh2) was disrupted by inserting a construct containing the native xylulokinase gene (XYLK); and the native orotidine-5′ phosphate decarboxylase gene (ura3) was disrupted by inserting a construct containing the native transaldolase 1 gene […]. The resulting strain had the following genotype: pho13::TKL1, gre3::HXT7, adh2::XYLK, ura3::TAL1.
The C5 strain was transformed using standard protocols with either p426GPD (as a control) or the chimeric variants XI-R, XI-Rp5, XI-Rp10, or XI-Rp15. The transformed cells were grown on SC-glucose minus uracil initially and then passaged onto SC-xylose minus uracil. Cultures of each of the above constructs were made in SC-xylose minus uracil—and grown for one week. The cultures were grown aerobically at 30° C. with 250 rpm agitation, 1 vvm sparge of process air, 21% O2. The pH was controlled at about 5.0 with 1N NaOH. […] At 24 hours elapsed fermentation time the fermentation was switched to anaerobic conditions. […] Oxygen was purged with 100% N2 sparge at 1 vvm until percent O2 was below 1%. Aeration was then set at 0.25 vvm 100% N2.
The final sample also measured biomass by dry cell weight.

The nature of series [5]: Xylose isomerase activity/kinetic assay on soluble whole cell extract (sorbitol dehydrogenase coupled, NADH, A340). It is filed as biochemical. The following applies: xylose isomerase expressed in S. cerevisiae, total soluble crude extract; xylose concentrations between 40 and 500 nM (so in the source); Michaelis Mentin plots. The method, then: […] Louis, Mo.), and about 2 U sorbitol dehydrogenase (Roche) at about 30° C. […] A Beckman DU-800 was utilized with an Enzyme Mechanism software package (Beckman Coulter, Inc.), and the change in the A340 was monitored for 2-3 minutes.
[…] Louis, Mo.), and 2 U Sorbitol Dehydrogenase (SDH) (Roche, Indianapolis, Ind.) at about 30° C. […] A Beckman DU-800 spectrophotometer was utilized with an Enzyme Mechanism software package (Beckman Coulter, Inc, Brea, Calif.), and the change in the A340 was monitored for 2-3 minutes.
[…] Louis, Mo.), and 2 U sorbitol dehydrogenase (SDH) (Roche, Indianapolis, Ind.) at about 30° C. […] A Beckman DU-800 spectrophotometer was utilized with an Enzyme Mechanism software package (Beckman Coulter, Inc, Brea, Calif.), and the change in the A340 was monitored for 2-3 minutes.
Approximately 20 μg of soluble whole cell extract from each transformed cell line was prepared using Y-PER plus reagent as described above was incubated in a solution containing about 100 mM Tris, pH 7.5, 10 mM MgCl ? 2, 0.15 mM NADH (Sigma, St. Louis, Mo.), and 2 U Sorbitol Dehydrogenase (SDH) (Roche, Indianapolis, Ind.) at about 30° C. […] A Beckman DU-800 spectrophotometer was utilized with an Enzyme Mechanism software package (Beckman Coulter, Inc, Brea, Calif.), and the change in the A340 was monitored for 2-3 minutes.

B1: Ruminococcus xylose isomerase: native xylose isomerase from Ruminococcus flavefaciens strain 17, SEQ ID NO: 31 (protein, listed as Ruminococcus flavefaciens)
chain: MEFFSNIGKIQYQGPKSTDPLSFKYYNPEEVINGKTMREHLKFALSWWHTMGGDGTDMFGCGTTDKTWGQSDPAARAKAKVDAAFEIMDKLSIDYYCFHDRDLSPEYGSLKATNDQLDIVTDYIKEKQGDKFKCLWGTAKCFDHPRFMHGAGTSPSADVFAFSAAQIKKALESTVKLGGNGYVFWGGREGYETLLNTNMGLELDNMARLMKMAVEYGRSIGFKGDFYIEPKPKEPTKHQYDFDTATVLGFLRKYGLDKDFKMNIEANHATLAQHTFQHELRVARDNGVFGSIDANQGDVLLGWDTDQFPTNIYDTTMCMYEVIKAGGFTNGGLNFDAKARRGSFTPEDIFYSYIAGMDAFALGFRAALKLIEDGRIDKFVADRYASWNTGIGADIIAGKADFASLEKYALEKGEVTASLSSGRQEMLESIVNNVLFSL
With B1, the “Active? (yes/no)” value in series [1] was “Yes”. The “cell density (FIG. 12)” value in series [2] (YP plus xylose) is “higher cell density”. Moreover, the “ethanol production (FIG. 12)” value in series [2] (xylose as a carbon source) is on record as “more ethanol”. For the same molecule, the “xylose consumption (FIG. 11)” value in series [3] is listed as “more efficient at consuming xylose than the strain carrying the vector control only”. In series [4], this molecule came in with a Glucose of 0 g/L. Moreover, in series [4] (listed as XI-R), the Ethanol is 15.65 g/L and 15.5 g/L; the Xylose is 3.14 g/L and 3.85 g/L. Further, the “Specific Activity” value in series [5] came out at 0.9605 µmol/min/mg.
